One experiment deals with T1, human NMUR1 (human, UniProt Q9HB89 1-426).
T1 construct: whole, on cells; Stably expressed in cells (FLIPR); also called hNMUR1; human R1
T1 sequence (looked up): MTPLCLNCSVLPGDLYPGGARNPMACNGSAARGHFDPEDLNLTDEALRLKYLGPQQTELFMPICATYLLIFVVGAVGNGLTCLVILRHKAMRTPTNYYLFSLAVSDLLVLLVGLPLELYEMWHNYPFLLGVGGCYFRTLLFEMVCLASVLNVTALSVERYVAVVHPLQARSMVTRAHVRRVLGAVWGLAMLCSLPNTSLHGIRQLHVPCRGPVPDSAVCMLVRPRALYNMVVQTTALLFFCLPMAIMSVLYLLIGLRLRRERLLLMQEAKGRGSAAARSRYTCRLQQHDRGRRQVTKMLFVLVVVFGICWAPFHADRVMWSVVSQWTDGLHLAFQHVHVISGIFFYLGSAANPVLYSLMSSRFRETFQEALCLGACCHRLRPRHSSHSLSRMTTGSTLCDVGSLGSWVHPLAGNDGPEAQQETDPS
Nature of the experiment: 125I-hNMU-25 displacement, HEK cell membranes. The method in brief:
(§1)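 HEK cell membranes (2-5 μg) incubated with […] ¹²⁵I-hNMU-25 and peptides for 80 min at room temperature in TrisCl pH 7.4 buffer with MgCl₂, EDTA, bacitracin and phosphoramidon. Bound ligand collected by filtration and scintillation counting; nonspecific binding with 1 μM hNMU-25. IC₅₀ from curve fitting.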

For a further experiment, the target named is T2, human NMUR2 (human, UniProt Q9GZQ4 1-415).
T2 construct: whole, on cells; Stably expressed in cells (FLIPR); also called hNMUR2; human R2
T2 sequence (Q9GZQ4 whole entry): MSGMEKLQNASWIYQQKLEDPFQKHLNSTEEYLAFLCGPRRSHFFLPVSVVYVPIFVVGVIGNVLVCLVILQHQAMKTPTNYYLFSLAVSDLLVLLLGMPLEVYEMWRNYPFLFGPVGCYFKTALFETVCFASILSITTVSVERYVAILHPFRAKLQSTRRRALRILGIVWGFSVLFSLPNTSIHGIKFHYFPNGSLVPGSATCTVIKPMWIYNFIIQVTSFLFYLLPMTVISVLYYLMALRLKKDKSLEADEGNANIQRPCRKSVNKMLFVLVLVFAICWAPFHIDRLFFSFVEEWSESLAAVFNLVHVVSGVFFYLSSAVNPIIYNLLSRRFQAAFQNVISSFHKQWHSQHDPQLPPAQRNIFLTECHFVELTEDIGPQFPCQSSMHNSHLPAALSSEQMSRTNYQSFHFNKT
In words: 125I-hNMU-25 displacement, HEK cell membranes. The essentials: as §1

We go through 1 molecule from patent US20070244048A1 (published 2007).

No end group written: not given here.

B1: human NMU-25 (peptide)
peptide: FRVDEEFQSPFASQSRGYFLFRPRN-NH2
notes: also called hNMU-25; native hNMU
One may read the IC50 as the concentration needed to halve the response being measured. A low value points to higher potency. Consider B1, for which, in the experiment with human NMUR1, the “% activity (binding)” value was 100% and the IC50 is 0.47 nM. In addition, in the experiment with human NMUR2, the “% activity (binding)” value came out at 100% and the IC50 is 0.19 nM.
